Test results as given in patent US20060014927A1 (US Dept. of Health and Human Services, published 2006).
Bridges are numbered along the chain shown (N, C = ends). [ ]: non-standard residue; d: D form. Gla = N[C@@H](CC(C(=O)O)C(=O)O)C(=O)O; Aad = N[C@@H](CCCC(=O)O)C(=O)O

Legend:
[1] = molecular target: T1, recombinant GST-Grb2 SH2 protein (UniProt P62993 60-152); experiment: Biacore SPR competition; inhibitor mixed with GST-Grb2 SH2 (150-250 nM), binding to immobilised biotin-SHC(pTyr-317)-9-mer as competitor
T1 construct: not shown: glutathione S-transferase (GST) fusion partner
T1 sequence (P62993 60-152): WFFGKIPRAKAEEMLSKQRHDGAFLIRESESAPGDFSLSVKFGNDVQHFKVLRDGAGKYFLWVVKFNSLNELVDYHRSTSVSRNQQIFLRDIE
Protocol: (§1) The competitive binding affinity of the present inventive compounds was assessed using Biacore Surface Plasmon Resonance (SPR) methods utilizing a Biacore 2000 instrument. […] Specifically, competitive binding assays were carried out at 5 μl/min flow rate, with GST-Grb2-SH2 (150-250 nM) and a cyclic peptide inhibitor (10 nM-2 mM) in phosphate-buffered saline (PBS), pH 7.4, containing 0.01% P-20 surfactant (Biacore, Inc., Piscataway, N.J.) for a total of 10 min. The change in response units (RU) at equilibrium was measured from the […] and the percent of control (no added peptide) was calculated. […] The results represent the mean value of at least two independent experiments.

Grb2 adapter protein = molecular target: T2, Grb2 adapter protein (UniProt P62993 1-217); experiment: MDA-MB-453 lysates incubated with inhibitor; anti-Grb2 co-immunoprecipitation, anti-pTyr Western blot; p185erbB-2 as competitor
T2 construct: Endogenous protein in cell lysates or whole cells
T2 sequence (P62993 whole entry): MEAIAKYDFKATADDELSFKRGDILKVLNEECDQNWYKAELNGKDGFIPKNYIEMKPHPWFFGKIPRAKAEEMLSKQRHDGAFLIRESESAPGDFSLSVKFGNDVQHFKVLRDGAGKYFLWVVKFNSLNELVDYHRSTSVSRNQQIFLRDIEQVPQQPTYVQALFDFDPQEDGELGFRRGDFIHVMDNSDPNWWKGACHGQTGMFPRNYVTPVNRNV
Protocol: Cell lysates were prepared from the serum-treated erbB-2-overexpressing breast cancer cell line MDA-MB-453 using 1% Triton X-100 in PBS containing 0.2 mM NaVO₄. Lysates were incubated with the present inventive cyclic peptide inhibitors specified in Example 1 and Example 12, at concentrations of 0.1, 0.4, 2, 10 and 50 μM. No inhibitor was used as a control. […] Grb2 and associated Grb2-binding proteins were immunoprecipitated from each lysate (500 μg) with anti-Grb2 antibodies and collected using protein A Sepharose using methods previously described. Immunoprecipitated proteins were separated by SDS-PAGE on 8-16% gradient gels (Novex). pTyr-containing proteins were detected by Western blotting using anti-phosphotyrosine antibodies (Upstate Biotechnology Inc.). Previous experiments have shown that a major tyrosine phosphorylated protein in MDA-MB-453 cells is p185^erbB-2, which is overexpressed as a consequence of gene amplification. […] A dose-dependent inhibition of the p185^erbB-2 receptor association with the Grb2 adapter protein was observed.

[2] = molecular target: T1, recombinant GST-Grb2 SH2 protein; experiment: comparison with the Glu1 analogue as reference; assay not named in the sentence (Biacore competition of Example 7 understood)
Protocol: as §1

| Binder | IC50 [1] [nM] | IC50 (Grb2 adapter protein) [nM] | fold improvement of binding efficacy over Glu^1 [2] [fold] |
| --- | --- | --- | --- |
| {CH2CO}-[Aad]LY[Aad]NVGMYC-NH2 (thioether N-10, Synthetic thioether-cyclised, non-phosphorylated peptide) [cyclo(CH2CO-Adi1-Leu2-Tyr3-Adi4-Asn5-Val6-Gly7-Met8-Tyr9-Cys)-amide] | 3050 |  |  |
| {CH2CO}-[Gla]LYENVGMYCAAVALLPAVLLALLAP-NH2 (thioether N-10; not fully specified; printed as cyclo(CH2CO-Gla1-Leu2-Tyr3-Glu4-Asn5-Val6-Gly7-Met8-Tyr9-Cys)-NH-Ala-Ala-Val-Ala-Leu-Leu-Pro-Ala-Val-Leu-Leu-Ala-Leu-Leu-Ala-Pro) |  | 2000 |  |
| {CH2CO}-[Gla]LYENVGMYC-NH2 (thioether N-10; SMILES CSCC[C@@H]1NC(=O)CNC(=O)[C@H](C(C)C)NC(=O)[C@H](CC(N)=O)NC(=O)[C@H](CCC(=O)O)NC(=O)[C@H](Cc2ccc(O)cc2)NC(=O)[C@H](CC(C)C)NC(=O)[C@H](CC(C(=O)O)C(=O)O)NC(=O)CSC[C@@H](C(N)=O)NC(=O)[C@H](Cc2ccc(O)cc2)NC1=O, Synthetic thioether-cyclised, non-phosphorylated peptide (L = S)) [cyclo(CH2CO-Gla1-Leu2-Tyr3-Glu4-Asn5-Val6-Gly7-Met8-Tyr9-Cys)-amide] | 640 | 2000 | 31 |
| {CH2CO}-[Aad]LYENVGMYC-NH2 (thioether N-10, Synthetic thioether-cyclised, non-phosphorylated peptide) [cyclo(CH2CO-Adi1-Leu2-Tyr3-Glu4-Asn5-Val6-Gly7-Met8-Tyr9-Cys)-amide] | 3450 |  | 6 |
